Experimental data taken from patent US20120073987A1, “ELECT[…] AND APPARATUS OF IDENTIFYING THE PRESENCE OF A TARGET” (priority 2009, published 2012).

How the values were obtained:
[1] = target: T1, HIV-1 reverse transcriptase (Human immunodeficiency virus type 1 group M subtype B, UniProt P04585); test: Cyclic voltammetry detection of HIV-1 RT binding on peptide-RT-modified Thc-Fc Au microelectrodes
T1 construct: HIV-1 reverse transcriptase (200 U, T3610Y, RT) was purchased from GE Healthcare; purchased GE Healthcare T3610Y
Method: (§1) Au microelectrodes were incubated in 1 mM ethanolic solution of Thc-Fc overnight (˜15 h). The electrodes were rinsed with ethanol and Millipore water (18.2 MΩ.cm). This layer was terminated by the amino-reactive carboxyl moieties that allowed the attachment of the peptides. The carboxyl groups were activated with 2 mM EDC and 5 mM NHS in 50 mM phosphate buffer solution (pH 7.4) for 2 h. The N-terminus of the peptides was attached to the activated carboxyl groups of Thc-Fc to give the final electrode interface. The peptides (1 mM) were incubated with the activated electrodes in 50 mM phosphate buffer solution (pH 7.4) for 2 h on a block-shaker at room temperature. Thus, the peptides were conjugated with the Fc compounds on the surface. The remaining active-esters were quenched by incubating the peptide-modified electrodes in 100 mM ethanolamine solution for 1 h on a block-shaker at room temperature. The peptide-modified electrodes were then incubated in 1 mM hexanethiol solution for 5 min to produce a diluted film and to back-fill the empty spots on the electrode surface. Finally, the electrodes were rinsed with ethanol and Millipore water to give the peptide-modified sensor surfaces. […]

HIV-1 integrase = target: T2, HIV-1 integrase (Human immunodeficiency virus type 1 group M subtype B, UniProt P04585); test: Cyclic voltammetry detection of HIV-1 IN binding on peptide-IN-modified Thc-Fc Au microelectrodes
T2 construct: HIV integrase (100 μg, HIV-122, IN) was purchased from ProspecBio (USA); purchased ProspecBio HIV-122
Method: as §1

[2] = 100 nM protein solution, n=3 electrodes, FIG. 7

VEAIIRILQQLLFIH [peptide-RT, purchased peptide ligand for HIV-1 RT, immobilised on ferrocene-modified gold electrode]
electrochemical response to exposure to HIV-1 RT (selectivity) [1, 2]: responded to the exposure of HIV-1 RT
detection limit for HIV-1 RT ([1]; estimated from 3(Sb/m), CV at 100 mV s^-1 in 2 M NaClO4, 1 h incubation in RT assay buffer pH 7.2): 20 nM

YQLLIRMIYKNI [peptide-IN, purchased peptide ligand for HIV-1 IN, immobilised on ferrocene-modified gold electrode]
electrochemical response to exposure to HIV-1 IN (selectivity) (HIV-1 integrase; [2]): responded to the exposure of HIV-1 IN
detection limit for HIV-1 IN (HIV-1 integrase; CV at 100 mV s^-1 in 2 M NaClO4, IN assay buffer pH 7.5): 20 nM
